Where a chain is given by its changes, count along the chain named. Names may count otherwise.
B1: wild-type human neuroglobin (natural protein, UniProt Q9NPG2 1-151, looked up)
chain: MERPEPELIRQSWRAVSRSPLEHGTVLFARLFALEPDLLPLFQYNCRQFSSPEDCLSSPEFLDHIRKVMLVIDAAVTNVEDLSSLEEYLASLGRKHRAVGVKLSSFSTVGESLLYMLEKCLGPAFTPATRAAWSQLYGAVVQAMSRGWDGE
notes: human neuroglobin (hNgb), described as a protein of 151 amino acids; Heme b protein; The dimers seen arise after H2O2 treatment and are held by covalent Tyr-Tyr links; also called hNgb; wild-type hNgb
B2: human neuroglobin Y44F variant (natural protein, UniProt Q9NPG2 1-151, looked up)
chain: B1 chain with Y44F
notes: human neuroglobin (hNgb) with Y44F
B3: human neuroglobin Y44A variant (natural protein, UniProt Q9NPG2 1-151, looked up)
chain: B1 chain with Y44A
notes: human neuroglobin (hNgb) with Y44A; also called hNgb Y44A
B4: human neuroglobin Y44AC46AC55A variant (natural protein, UniProt Q9NPG2 1-151, looked up)
chain: B1 chain with Y44A, C46A, C55A
notes: human neuroglobin (hNgb) with Y44A, C46A and C55A; also called triple variant

Columns and labels:
[1] = target: the molecule itself; experiment: SEC-MALS; HPLC-SEC-PDA-MALS, Superdex 200 10/300 GL, 1x PBS pH 7.4, 25°C, detection at 412 nm; 1 μg/μL protein incubated 20 h at 4°C with different molar excess of H2O2 before the run; monomer to covalent dimer
[2] = target: the molecule itself; experiment: SEC; HPLC-SEC of wild-type hNgb, 1 µg/µL, 15-fold H2O2, 20 h at 4°C, with or without the spin trap MNP (10 µg/µL)

Protein	stoichiometry N [1]	percent dimerization (15-fold H2O2, with MNP) [2] [%]	percent dimerization (15-fold H2O2, without MNP) [2] [%]
B1	2	8.1	18.7
B2	2		
B3	2		
B4	2		
